One substance from US20110166036A1 can be followed below.

For this assay, the target named is recombinant human sortilin (human) (UniProt Q99523). Description: SPR (BIAcore), sortilin immobilized on CM5 chip, ApoB 10, 20, 50 nM. Background: In SPR one partner is held on a chip, and binding of the other changes the refractive index at the surface.
Sequence of recombinant human sortilin (human) (Q99523 78-755 limits assumed, form in doubt): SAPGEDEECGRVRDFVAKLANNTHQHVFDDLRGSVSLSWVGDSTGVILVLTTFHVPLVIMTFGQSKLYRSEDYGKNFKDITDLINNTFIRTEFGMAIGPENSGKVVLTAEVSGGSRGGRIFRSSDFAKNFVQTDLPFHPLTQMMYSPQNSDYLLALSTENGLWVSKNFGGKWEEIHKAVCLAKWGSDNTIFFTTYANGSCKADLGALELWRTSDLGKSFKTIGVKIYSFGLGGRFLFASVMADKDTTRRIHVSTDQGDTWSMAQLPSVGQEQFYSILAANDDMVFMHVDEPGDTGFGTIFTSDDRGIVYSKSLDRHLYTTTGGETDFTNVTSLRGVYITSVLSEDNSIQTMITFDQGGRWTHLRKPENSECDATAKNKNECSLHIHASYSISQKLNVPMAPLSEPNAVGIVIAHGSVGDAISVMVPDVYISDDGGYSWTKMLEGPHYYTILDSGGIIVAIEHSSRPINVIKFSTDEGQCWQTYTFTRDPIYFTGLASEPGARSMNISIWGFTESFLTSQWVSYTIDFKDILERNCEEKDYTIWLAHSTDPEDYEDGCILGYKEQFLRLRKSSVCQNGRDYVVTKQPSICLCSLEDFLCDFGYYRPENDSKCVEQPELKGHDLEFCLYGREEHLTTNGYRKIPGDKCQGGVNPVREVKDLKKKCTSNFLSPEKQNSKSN

What is called Kd is the concentration at which binding is half-saturated. On to ApoB (ligand), for which the Kd is 0.4 nM.
